Our source for the binding result and binding signal values is PMC6477699, “Phylogenetic Analyses and GAGA-Motif Binding Studies of BBR/BPC Proteins Lend to Clues in GAGA-Motif Recognition and a Regulatory Role in Brassinosteroid Signaling”.

Data set [1] addresses T1, GFP-BPC6 (Arabidopsis thaliana, UniProt Q8L999 1-342).
T1 sequence: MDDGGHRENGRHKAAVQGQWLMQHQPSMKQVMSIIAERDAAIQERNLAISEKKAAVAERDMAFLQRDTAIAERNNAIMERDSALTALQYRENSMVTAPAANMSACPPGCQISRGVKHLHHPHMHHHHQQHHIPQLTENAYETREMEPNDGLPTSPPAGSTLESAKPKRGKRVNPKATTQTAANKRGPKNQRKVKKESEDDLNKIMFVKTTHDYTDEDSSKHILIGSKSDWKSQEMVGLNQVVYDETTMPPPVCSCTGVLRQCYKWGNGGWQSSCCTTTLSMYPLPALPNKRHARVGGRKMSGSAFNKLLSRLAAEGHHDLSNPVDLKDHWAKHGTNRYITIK
Nature of the data set: qDPI-ELISA; similar to the other 2x GAGA probes; DPI-ELISA/qDPI-ELISA: 3 ug total E. coli protein extract and 2 pmol biotinylated dsDNA per well in buffered solution; salt, pH and temperature not stated (cited protocols). The settings on record: protein: recombinant; tags: GFP fusion; label: biotin on sense strand. (In general: In an ELISA, binding on a coated surface is turned into a signal by an enzyme label.)

Data set [2] concerns the target T1, GFP-BPC6. Nature of the data set: qDPI-ELISA; 2.5-times lower than BKn3; DPI-ELISA/qDPI-ELISA: 3 ug total E. coli protein extract and 2 pmol biotinylated dsDNA per well in buffered solution; salt, pH and temperature not stated (cited protocols). The conditions noted are these: protein: recombinant; tags: GFP fusion; label: biotin on sense strand.
Data set [3] has as its target T2, BPC1 (Arabidopsis thaliana, UniProt Q9SKD0 1-283).
T2 sequence: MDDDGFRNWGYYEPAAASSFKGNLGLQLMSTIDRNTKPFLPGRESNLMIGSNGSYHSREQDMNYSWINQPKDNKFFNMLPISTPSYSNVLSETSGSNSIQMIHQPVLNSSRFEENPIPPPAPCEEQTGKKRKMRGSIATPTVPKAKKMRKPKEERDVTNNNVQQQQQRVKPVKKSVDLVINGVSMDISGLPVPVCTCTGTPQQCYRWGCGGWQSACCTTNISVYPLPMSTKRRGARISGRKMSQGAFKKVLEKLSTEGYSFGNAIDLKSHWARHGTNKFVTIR
Nature of the data set: DPI-ELISA; comparable to K4; DPI-ELISA/qDPI-ELISA: 3 ug total E. coli protein extract and 2 pmol biotinylated dsDNA per well in buffered solution; salt, pH and temperature not stated (cited protocols). The settings on record: protein: recombinant; tags: N-terminal 6xHis (pET32b-GW); label: biotin on sense strand.

The target of data set [4] is T1, GFP-BPC6. Description: qDPI-ELISA; negative binding probe, used as background; DPI-ELISA/qDPI-ELISA: 3 ug total E. coli protein extract and 2 pmol biotinylated dsDNA per well in buffered solution; salt, pH and temperature not stated (cited protocols). The settings on record: protein: recombinant; tags: GFP fusion; label: biotin on sense strand.
For data set [5], the target named is T3, BPC1-TIR (Arabidopsis thaliana, UniProt Q9SKD0 1-280).
T3 sequence: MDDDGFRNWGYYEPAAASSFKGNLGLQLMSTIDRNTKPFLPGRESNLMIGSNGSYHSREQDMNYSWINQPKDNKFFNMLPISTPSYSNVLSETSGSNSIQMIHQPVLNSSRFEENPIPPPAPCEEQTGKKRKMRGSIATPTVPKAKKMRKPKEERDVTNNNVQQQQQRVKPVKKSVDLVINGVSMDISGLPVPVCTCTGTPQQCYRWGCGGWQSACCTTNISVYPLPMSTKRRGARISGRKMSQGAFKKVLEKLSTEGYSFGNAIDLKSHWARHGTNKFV
Nature of the data set: DPI-ELISA; about 30% less than wild type; DPI-ELISA/qDPI-ELISA: 3 ug total E. coli protein extract and 2 pmol biotinylated dsDNA per well in buffered solution; salt, pH and temperature not stated (cited protocols). The conditions noted are these: protein: recombinant; tags: N-terminal 6xHis (pET32b-GW); label: 5' or 3' biotin not specified, sense strand biotin.

Data set [6] concerns the target T4, BPC1-WARH (Arabidopsis thaliana, UniProt Q9SKD0 1-270).
T4 sequence: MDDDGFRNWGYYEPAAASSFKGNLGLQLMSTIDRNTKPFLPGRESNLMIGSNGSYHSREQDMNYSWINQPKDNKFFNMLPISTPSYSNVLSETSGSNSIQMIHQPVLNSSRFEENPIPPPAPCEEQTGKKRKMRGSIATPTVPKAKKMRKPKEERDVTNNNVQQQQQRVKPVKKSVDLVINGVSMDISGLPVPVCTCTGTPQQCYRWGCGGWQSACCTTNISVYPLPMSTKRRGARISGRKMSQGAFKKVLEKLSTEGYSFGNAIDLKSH
Nature of the data set: DPI-ELISA; DPI-ELISA/qDPI-ELISA: 3 ug total E. coli protein extract and 2 pmol biotinylated dsDNA per well in buffered solution; salt, pH and temperature not stated (cited protocols). The settings on record: protein: recombinant; tags: N-terminal 6xHis (pET32b-GW); label: 5' or 3' biotin not specified, sense strand biotin.

Data set [7] addresses T2, BPC1. Described as above. The settings on record: protein: recombinant; tags: N-terminal 6xHis (pET32b-GW); label: biotin on sense strand.
The target of data set [8] is T1, GFP-BPC6. Nature of the data set: qDPI-ELISA; DPI-ELISA/qDPI-ELISA: 3 ug total E. coli protein extract and 2 pmol biotinylated dsDNA per well in buffered solution; salt, pH and temperature not stated (cited protocols). The conditions noted are these: protein: recombinant; tags: GFP fusion; label: biotin on sense strand.

B1: K4mut7mut5 (dsDNA)
DNA 1: TAAAGGAGCAAGTAAGAGAACGAGAGTTTC
DNA 2: GAAACTCTCGTTCTCTTACTTGCTCCTTTA
In the case of B1, the binding result in data set [1] is given as “binds”.

B2: K12 (dsDNA)
DNA 1: AATTGGAAATATGGAGAGAGAAAACAAATC
DNA 2: GATTTGTTTTCTCTCTCCATATTTCCAATT
Consider B2, for which the binding result in data set [1] was “binds”.

B3: KNAT1/BP (dsDNA)
DNA 1: ATGAGGGCAAAGAGAGATGAGAGAAAATTTATACGTAC
DNA 2: GTACGTATAAATTTTCTCTCATCTCTCTTTGCCCTCAT
As to B3, the binding result in data set [2] and in data set [3] was “binds” throughout.

B4: Kneg (dsDNA)
DNA 1: TAATGCAGCAAGTAAGACTACGACTGTTTC
DNA 2: GAAACAGTCGTAGTCTTACTTGCTGCATTA
On to B4, for which the binding result in data set [4] was “no binding”.

B5: K4 (dsDNA)
DNA 1: TAAAGGAGAAAGAAAGAGAAAGAGAGTTTC
DNA 2: GAAACTCTCTTTCTCTTTCTTTCTCCTTTA
Take B5: the binding signal in data set [5] was ~70 % of wild-type BPC1 signal. Further, in data set [6], the binding result is recorded as “no binding”.

B6: GAGA2 (dsDNA)
DNA 1: GGAGCAAGTAAGAGATGAAACGAGAGTTTC
DNA 2: GAAACTCTCGTTTCATCTCTTACTTGCTCC
For B6, in data set [1], the binding result is listed as “binds”.

B7: BKn3 (dsDNA)
DNA 1: CCGCCATTAATTCATGAGAGAGAGAGAGAGACCAGAGATAA
DNA 2: TTATCTCTGGTCTCTCTCTCTCTCTCATGAATTAATGGCGG
As to B7, the binding signal in data set [7] was ~2 fold of K4 signal; in data set [8] it was ~2.5 fold of KNAT1/BP fluorescence.
